Results taken from patent publication US20240254166A1 (University of California, published 2024).

Target: T1, T-Alb-VFP (human, UniProt P02768 25-609)
T1 construct: mature;domain: transmembrane domain; also called tethered Alb
Assay: FRET (donor photobleaching), HEK293T cells

B1: CiHv1-TFP (other)
chain: MEGDNCNKSRHKSHNMINPNYASVRCTQPLPSVIQLRSRNKMIGITEDPSSDSEPVSSNQPLLLTNLSYEVHTFNDNNNHERPAPQEQSTQNTMISMQSEQKSDRFTASNLGMFQYMKFEIGEDGDDHEEEAILTNREKLRHILHSKPIHVAIIVLVVLDSFLVVGELLIDLKVIIVPHGNPAPEILHGFSLSILSIFMVEIALKIIADHRHFIHHKVEVLDAVVVVISFGVDIALIFVGESEALAAIGLLVILRLWRVFRIINGIIVTVKTKADDRVHEIKKKNSELELQIHNLEEKLSQKEQDMSRLHEILRCNNIDIPPTVPLTTSVQIHSTTTASADV
notes: whole, on cells
- binding result: no binding
